The text below walks through data of FireProtDB (doi:10.1002/cbic.201402128).

For orientation: Tm means the temperature at the midpoint of the melting transition.

B1: Haloalkane dehalogenase, D4Z2G1 (parent)
chain: MSLGAKPFGEKKFIEIKGRRMAYIDEGTGDPILFQHGNPTSSYLWRNIMPHCAGLGRLIACDLIGMGDSDKLDPSGPERYAYAEHRDYLDALWEALDLGDRVVLVVHDWGSALGFDWARRHRERVQGIAYMEAIAMPIEWADFPEQDRDLFQAFRSQAGEELVLQDNVFVEQVLPGLILRPLSEAEMAAYREPFLAAGEARRPTLSWPRQIPIAGTPADVVAIARDYAGWLSESPIPKLFINAEPGALTTGRMRDFCRTWPNQTEITVAGAHFIQEDSPDEIGAAIAAFVRRLRPA

The data set covers variants of B1. To be noted: Sphingobium indicum (strain DSM 16413 / CCM 7287 / MTCC 6362 / UT26 / NBRC 101211 / UT26S); pH 7.5; Thermal; fluorescence; Na-Hepes 50 mM; reversible: no; structure 1MJ5; whole UniProt chain shown.

Turning to MSLGAKPFGEKKFIEIKGRRMAYIDEGTGDPILFQHGNPTSSYLWRNIMPHCAGLGRLIACDLIGMGDSDKLDPSGPERYAYAEHRDYLDALWEALDLGDRVVLVVHDWGSALGFDWARRHRERVQGIAYMEAIAMPIEWADFPEQDRDLFLAFRSQAGEELVLQDNVFVEQVLPGLILRPLSEAEMAAYREPFLAAGEARRPTLSWPRQIPIAGTPADVVAIARDYAGWLSESPIPKLFINAEPGALTTGRMRDFCRTWPNQTEITVAGAHFIQEDSPDEIGAAIAAFVRRLRPA [Q152L], the Tm came to 61.5 °C and the “change of melting temperature, mutant - wild type (higher = more stable)” value (“change of melting temperature, mutant” for short) turned out to be 10.5 °C.

In the case of MSLGAKPFGEKKFIEIKGRRMAYIDEGTGDPILFQHGNPTSSYLWRNIMPHCAGLGRLIACDLIGMGDSDKLDPSGPERYAYAEHRDYLDALWEALDLGDRVVLVVHDWGSALGFDWARRHRERVQGIAYMEAIAMPIEWADFPEQDRDLFQAFRSQAGEELVLQDNVFVEQVLPGLILRPLSEAEMAAYREPFLAAGEARRPTLSWPRQIPIAGTPADVVAIARDYAGWLSESPIPKLFINAEPGALTTGRMRDFARTWPNQTEITVAGAHFIQEDSPDEIGAAIAAFVRRLRPA [C257A], the Tm stood at 48.5 °C and the “change of melting temperature, mutant” value is -2.5 °C.

MSLGAKPFGEKKFIEIKGRRMAYIDEGTGDPILFQHGNPTSSYLWRNIMPHCAGLGRLIACDLIGMGDSDKLDPSGPERYAYAEHRDYLDALWEALKLGDRVVLVVHDWGSALGFDWARRHRERVQGIAYMEAIAMPIEWADFPEQDRDLFQAFRSQAGEELVLQDNVFVEQVLPGLILRPLSEAEMAAYREPFLAAGEARRPTLSWPRQIPIAGTPADVVAIARDYAGWLSESPIPKLFINAEPGALTTGRMRDFCRTWPNQTEITVAGAHFIQEDSPDEIGAAIAAFVRRLRPA [D97K]: the midpoint of thermal melting (Tm) is 50.5 °C and the “change of melting temperature, mutant” value was -0.5 °C.

In the case of MSLGAKPFGEKKFIEIKGRRMAYIDEGTGDPILFQHGNPTSSYLWRNIMPHCAGLGRLIACDLIGMGDSDKLDPSGPERYAYAEHRDYLDALWEALNLGDRVVLVVHDWGSALGFDWARRHRERVQGIAYMEAIAMPIEWADFPEQDRDLFQAFRSQAGEELVLQDNVFVEQVLPGLILRPLSEAEMAAYREPFLAAGEARRPTLSWPRQIPIAGTPADVVAIARDYAGWLSESPIPKLFINAEPGALTTGRMRDFCRTWPNQTEITVAGAHFIQEDSPDEIGAAIAAFVRRLRPA [D97N], the melting temperature (Tm) was 50 °C and the “change of melting temperature, mutant” value is -1 °C.

For the variant MSLGEKPFGEKKFIEIKGRRMAYIDEGTGDPILFQHGNPTSSYLWRNIMPHCAGLGRLIACDLIGMGDSDKLDPSGPERYAYAEHRDYLDALWEALDLGDRVVLVVHDWGSALGFDWARRHRERVQGIAYMEAIAMPIEWADFPEQDRDLFQAFRSQAGEELVLQDNVFVEQVLPGLILRPLSEAEMAAYREPFLAAGEARRPTLSWPRQIPIAGTPADVVAIARDYAGWLSESPIPKLFINAEPGALTTGRMRDFCRTWPNQTEITVAGAHFIQEDSPDEIGAAIAAFVRRLRPA [A5E], the Tm was 51.5 °C and the “change of melting temperature, mutant” value is 0.5 °C.

Take MSLGAKPFGEKKFIEIKGRRMAYIDEGTGDPILFQHGNPTSSYLWRNIMPHCAGLGRLIACDLIGMGDSDKLDPSGPERYAYAEHRDYLDALWEALDLGDRVVLVVHDWGSALGFDWARRHRERVQGIAYMEAIAMPIEWADFPEQDRDLFQAFRSQAGEELVLQDNVFVEQVLPGLILRPLSEAEMAAYREPFLAAGEARRPTLSWPRQIPIAGTPADVVAIARDYAGWLSESPIPKLFINAEPGALTTGRMRDFCRTWPNQLEITVAGAHFIQEDSPDEIGAAIAAFVRRLRPA [T264L]: the Tm amounted to 50.5 °C and the “change of melting temperature, mutant” value is -0.5 °C.

Turning to MSLGAKPFGEKKFIEIKGRRMAYIDEGTGDPILFQHGNPTSSYLWRNIMPHCAGLGRLIACDLIGMGDSDKLDPSGPERYAYAEHRDYLDALWEALDLGDRVILVVHDWGSALGFDWARRHRERVQGIAYMEAIAMPIEWADFPEQDRDLFQAFRSQAGEELVLQDNVFVEQVLPGLILRPLSEAEMAAYREPFLAAGEARRPTLSWPRQIPIAGTPADVVAIARDYAGWLSESPIPKLFINAEPGALTTGRMRDFCRTWPNQTEITVAGAHFIQEDSPDEIGAAIAAFVRRLRPA [V103I], the midpoint of thermal melting (Tm) was found to be 51 °C and the “change of melting temperature, mutant” value turned out to be 0 °C.

In the case of MSLGAKPFGEKKFIEIKGRRMAYIDEGTGDPILFQHGNPTSSYLWRNIMPHCAGLGRLIACDLIGMGDSDKLDPSGPERYAYAEHRDYLDALWEALDLGDRVVLVVHDWGSALGFDWARRHRERVQGIAYMEAIAMPIEWADFPEQHRDLFQAFRSQAGEELVLQDNVFVEQVLPGLILRPLSEAEMAAYREPFLAAGEARRPTLSWPRQIPIAGTPADVVAIARDYAGWLSESPIPKLFINAEPGALTTGRMRDFCRTWPNQTEITVAGAHFIQEDSPDEIGAAIAAFVRRLRPA [D147H], the melting temperature (Tm) stood at 59.5 °C and the “change of melting temperature, mutant” value is 8.5 °C.

As for MSLGAKPFGEKKFIEIKGRRMAYIDEGTGDPILFQHGNPTSSYLWRNIMPHCAGLGRLIACDLIGMGDSDKLDPSGPERYAYAEHRDYLDALWEALDLGDRVVLVVHDWGSALGFDWARRHRERVQGIAYMEAIAMPITWADFPEQDRDLFQAFRSQAGEELVLQDNVFVEQVLPGLILRPLSEAEMAAYREPFLAAGEARRPTLSWPRQIPIAGTPADVVAIARDYAGWLSESPIPKLFINAEPGALTTGRMRDFCRTWPNQTEITVAGAHFIQEDSPDEIGAAIAAFVRRLRPA [E139T], the Tm was 60.5 °C and the “change of melting temperature, mutant” value stood at 9.5 °C.

Regarding MSLGAKPFGEKKFIEIKGRRMAYIDEGTGDPILFQHGNPTSCYLWRNIMPHCAGLGRLICCDLIGMGDSDKLDPSGPERYAYAEHRDYLDALWEALDLGDRVVLVVHDWGSALGFDWARRHRERVQGIAYMEAIAMPIEWADFPEQDRDLFQAFRSQAGEELVLQDNVFVEQVLPGLILRPLSEAEMAAYREPFLAAGEARRPTLSWPRQIPIAGTPADVVAIARDYAGWLSESPIPKLFINAEPGALTTGRMRDFCRTWPNQTEITVAGAHFIQEDSPDEIGAAIAAFVRRLRPA [S42C A60C], the midpoint of thermal melting (Tm) was 47.5 °C and the “change of melting temperature, mutant” value is -1.5 °C.
